Molecular target: T1, FAS-R (Homo sapiens, UniProt P25445)
T1 construct: the FAS-IC extends-from amino acid residues 175-319 of the intact FAS-R; expressed in transfected cells; host or cells: SFY526 yeast
T1 sequence (P25445 191-335): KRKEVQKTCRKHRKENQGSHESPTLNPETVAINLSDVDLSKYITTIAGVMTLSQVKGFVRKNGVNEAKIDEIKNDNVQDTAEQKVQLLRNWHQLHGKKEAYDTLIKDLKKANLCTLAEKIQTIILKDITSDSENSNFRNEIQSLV
Test: Two-hybrid β-galactosidase filter assay (FIG. 5), binding to FAS-R
Details: two hybrid test
Description: The yeast two-hybrid test was further applied to evaluate the specificity of binding of MACH to MORT-1, in particular, to define the region in MORT-1 to which MACH binds, as well as to determine which of the MACH ORFs interacts with MORT-1, the procedures being as set forth herein above in Examples 1 and 2. Briefly, various MORT-1 and MACH constructs were prepared for testing the interaction of the proteins encoded by the Gal4 DNA-binding domain and activation domain constructs within transfected SFY526 yeast cells as assessed by the β-galactosidase expression filter assay. The DNA-binding domain constructs were prepared in pGBT9 vectors and the activation domain constructs were prepared in pGAD-GM vectors. […] In the assay, the development of color was determined, where the greater the color development, the greater the interaction between the constructs encoded by the DNA-binding domain and activation domain; Color development was depicted by symbols, where “+++” and “+” indicate the development of a strong color within 30 and 90 min. of the assay, respectively, and “−−−” indicates the lack of development of color within 24 hrs. of the assay. […]
In FIG. 5, there is shown the results of the interaction of MORT-1 and MACH within transfected yeast cells. […] Their interaction was assessed by a β-galactosidase expression filter assay as described in Boldin et al (1995b). […]

B1: MACHβ1: MACH isoform, cDNA SEQ ID NO: 4, amino acid SEQ ID NO: 5; lacks the CED3/ICE homology region (protein)
chain: MDFSRNLYDIGEQLDSEDLASLKFLSLDYIPQRKQEPIKDALMLFQRLQEKRMLEESNLSFLKELLFRINRLDLLITYLNTRKEEMERELQTPGRAQISAYRVMLYQISEEVSRSELRSFKFLLQEEISKCKLDDDMNLLDIFIEMEKRVILGEGKLDILKRVCAQINKSLLKIINDYEEFSKERSSSLEGSPDEFSNDFGQSLPNEKQTSGILSDHQQSQFCKSTGESAQTSQH
binding to FAS-R in transfected yeast: unable to bind

— US7799901B2, “Modulators of the function of FAS receptors and other proteins” (Yeda Research and Development Co. Ltd., priority 1995, dated 2010)
